Data on 47 sequences can be found in the NTF2 design screens of Basanta et al. (2020).

This data set is described as follows: protease stability score; higher = more stable; yeast display proteolysis, trypsin and chymotrypsin.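 Also: relative to predicted unfolded state with 0 unfolded-like and 1 meaning tenfold more protease.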
Regarding “DEEERHVRELLREWIESLFTGDEHRLMELADPHARSHIDGVDLHGRENMHRMIHELRITDMRIRRISVRLVGDFVDVRVDGESDIYFNGQRLHTQIDIVIISSKIDGKWVIEEVHHNIE”, the protease stability score came to 0.763.

Turning to “DEEERIAEEMISDWIHVMRTGNEELLKDMADPHVKVYIDGRDFHGMEFLVREYRQYDHNDSELRHFTVQGNYVFSEQMLKLTVNGQTITWEVHYKSLKVDGRWIVTLILLK”, the protease stability score was determined as 1.32.

The sequence “DEEERIAKVMLKIVEKDLHTGNFETLFHLMDPHMRLEYGDKHHHGREEAYRELLEIWEELGANHYHITHRHVRLIGDKIRIHIYSIVRFNGREHHLHIDLIVTKIDGRWVMHRIIIELK” gave a protease stability score of 0.723.

The sequence “DEEERISEELFNFITKHWLTGDFDAVRNRLDPNVRYLINGREWHGREYARHLASHLRVERVKIENFEIQGNKITFDTRMDGEFDGQHIDVKTIIIFVKIDGKWLLHEFVIH” returned a protease stability score of 1.34.

For the sequence “DEEERKMEEALRLMKTTHDTGDWDLERELFDPNVKMDINGRELHGRRHWEKLRKDFGLDNIRFTLRHIDSQGDFILIRGDVEINGVRLDVIIIAEKINGRWIVREVRLR”, the protease stability score was 0.718.

For the sequence “DEEERLDEEIMERIHKAYATGDFDEIKRLIDPHVRSDINGVDTHGRDDAIHYLHHVYRRLGFKHFELKHVESYDGRVHTDGWLRFNGQERRVEFRWQVIDGRIHSVSLRMK”, the protease stability score stood at 0.975.

With “DEEERLEREIVDHLWTNWYTGDEERMEELADPNVRLEINIGDKHIRLHGRHELLRHLHEWKERFKNIKIRLHDYRVIDGRVHLHVVYRFDGRHKTMHIELYIVNGRIKEIIHRES”, the protease stability score stood at 1.66.

In the case of “DEEERLLDHVIKLMLQMHLTGNEEIFLNLADPHAKFYFNGVDLHGMELVSKWESEWLHHIRIRRRHIEDSRIVGDKAHIHVRVDEEIGDKKLDTHYRVDLVVINGRWHSVRIDMR”, the protease stability score turned out to be 1.25.

The sequence “DEEERLLEELARLFLHLWRTGDEDTMLHLADPNTRSRINGVEQHGMELTNKFLEELLRHIRIKHLKITHSYAFDGRVFMHTLMHRTVDGKEETVWVEIILVVFNGKLKEYEVRFK” had a protease stability score of 1.3.

With “DEEERLLEKSIKEEIERNVTGDFRRIHELFDPNMRLDINGQEYMGRDLMVERWQKFKNVRSHIELRHYEIINGKAHVDGHLILYIDGVELRTRTRIIYVKINGRWSIQEIDIT”, the protease stability score stood at 1.38.

For “DEEERLLHEAFEELVRVWETGDEEEKLRYMDPNTIIVINGVELHGREEARKHAHHLRIHRFHLKDYRFQGDKVHLDMHIDGFINGQKMRTDVRFQVHKIDGRWVITHSIWI”, the protease stability score was 1.71.

“DEEERLLLEWVRLFLTAWETGDEKLQEKLMDPHARTDFNGVQLHGREEYSRFLSQLRIRRFHVRDESIRIVGNKAESEVDGEVEGEVNGQRFKQHTEIEIHSEKINGRWLWKSLTIRIK” showed a protease stability score of 1.5.

The sequence “DEEERLMKELSDRFLHMKETGDEELFHKLADPNVRVEIGDKSRHGRELATEFLSWVMKELGVKHVKLHDKRTYDGRVHLNGTLEFNGREFRVRITVIIVNGRVHDIRVELE” registered a protease stability score of 0.771.

Sequence “DEEERLQEELTKRLIHDFETGDFEAILELFDPHVRVFVNGKDDHGWEMLERSWREMGIDHMQIRDFELHHINGRLEVRIRTEIRVGDKTMDTIIILNVQKYDGRWRIHKVEITIR” yielded a protease stability score of 1.24.

In the case of “DEEERLRHEALKEWLETLVTGDERIIMEQLDPDARIDINGQEIHGMELFAKFMSEMGINVFDLKRTTIQGDKLRIEGVIKFNGKTHRVHVRSTKVDGRWRNKEVRVE”, the protease stability score was 1.43.

In the case of “DEEERLSREILELNIEVLETGNEHVVRELLDPHVKMEVGDKEYHGREEFVTLFHHFGIDHFHIHEIRFIGNKAEMHVSSEINGRRFSILIIAHKVNGKWIMHTMHVE”, the protease stability score was -0.037.

As for “DEEERLTRDWAKQWIHFLETGDEDRLMELADPHVRIDVNGQEFHGREQFNKFMSHLTTHARFETKEVQVIGNKTHIDTRMSIDGKTTETLVILIIWNGRLKELRIHHH”, the protease stability score was 1.47.

The sequence “DEEERLVRKFSSVVKHIFKTGDWKRFTELADPDTLLIIIIGDKEIRHHGREEITHALREWFRILGIDHFHIRDERYQGDKVELDTEVRYNGQTHDFVIEVIVVDGRAKEFKIRFR” came in with a protease stability score of 1.67.

In turn, “DEEERLWEAAEYFFIHLLQTGDEEMVTKYADPHVRSDVNGVEYHGMNQFVEEWRRLVERIDHLESHHIDRVEIYNGVVTVHLRVHGEVNGKRDTFRVIIFMYKYNGQWRIHSYEFK” came in with a protease stability score of 1.1.

In turn, “DEEERLWHEFLEEFLRYIITGNWKKIADLADPNVRYQQGEKTNIGREDFERHFEKTYNDLGVDHFEIDHVDIQGNKIEIHLWLRVNGQEHKIHIDVKVVNGRIKYVRIEYE” gave a protease stability score of 1.5.

“DEEERMAHEVAEILLRSLHTGDWRRDMDLLDPHVRFDFNGVHLHGREEWLRHLHEFWRKFGVEFFDLHEDNISIQGDKAIMDGQIEFNGRRTKQKLEITVIDGRVKEVRVEIH” showed a protease stability score of 0.59.

For “DEEERQLEEFLELLVEALRTGDWHTLMRMLDPNVKVHIDGKDIHGREEHIRLHIEQWERLGYERIEFRVRIDEVHFINGVVEVDYTQIDQFDGQRLQLRVRIFLLKFDGRWSIDKVVFR”, the protease stability score amounted to 2.46.

The sequence “DEEERQVLLLAKILIHLYYTGDEESFRKLLDPHVRIIWNGRDFVGRENWYELLHRVLRHWRIHHIDIHDFDVQGNKARFHTQIVVDVNGKHIRSHTEVIYVVVNGRVDEIEVIIR” yielded a protease stability score of 2.37.

In turn, “DEEERRDREWLHRMLHVHHTGDEEMFKRLADPHTLLRVDGKDVHGREEIAHFIRERGYRVEVHARHIEIINGRIDNETTVIVRINGRTIHEETHLHIRKINGKWILTHWHIE” returned a protease stability score of 0.654.

For “DEEERRLHEIAELVVHRLVTGDEDTLNKLFDPNTRFELIFNGQNFELHGREALMEWLQRRRNVREKHEVRRIEYQGDKLHVDGTLIIEYGDKRRESEVDLRIRVVNGRVHTIDLRLK”, the protease stability score is 1.48.

With “DEEERRTREFTEHVLHAEETGDFDSFVELADPNVRMRIGDKEIHGMEMVAKWLVHMRIKHFNLHRIEIQGEKVHIDGEIKGRFNGRDTETKVIFHIVVIDGRLHSQIIQIH”, the protease stability score was 1.54.

Turning to “DEEERSAKDFSERVFEEDRTGDEERWERLADPNVRLDINGKEHHGRELVMKYRLEFLRRVKNMVIRLEHIEIRVFDGKLTLHIHGVINVDGKTIHFDLIIIVRKVDGRWRIDEVIIEIK”, the protease stability score amounted to 1.4.

For the sequence “DEEERSFELALRLLERTIKTGNEDDWRRMLDPHTKIIIGDKEFHGMEDAEKILREHIHRIDHFHDIHLHRIRVQGDKIHMDVRLDGRINGRRDILIARFTVVKVDGRWVIHQVESH”, the protease stability score was 1.22.

“DEEERVRDEIERLIEESLRTGDWRHLSELFDPNVRMEVGDKDIIGRERVHQAIHDFWKSFGADHRHLHDIEEINGVVIMHMRYRVGNKTVHFHVIMIKINGRWFLHSVHIHID” came in with a protease stability score of 1.11.

The sequence “DEEERYIIEMLRILAEAILTGDEDETHNQLDPDVRIEWNGVELHGRDELLRFMHHLRIDIKRVEFRSITKVDGRVHTDGLLDVTYFIDGRVFRRRTHTELIILKVDGRWTFHSIKID” yielded a protease stability score of 2.19.

“DEEESIERELSRRWLHWFITGDEERAKKLADPRARYHQGDKEIHGWDNLRKFLFEILEKIPNLRIIIRDSDVINGRIHYDTELHIDGVHIKTHLIIVIVDGRLKELHVEEH” registered a protease stability score of 0.06.

Consider “DEEESRIEKVNRRWLRAYATGDEDTLNHLIDPRVRMDIDGVDLHGREEFEEWLRRIDVIRTFELKFMHIQGEKVNNDVQFDTRIDGQNRSVRNKLIIEKVDGKWVVKTIHFI”, for which the protease stability score is 0.228.

Regarding “DEEHDIDRKIFEMIVDVFLTGDWKRWFDNADPDVKTEIRIGDKKIDLHGWEFFLRFLEEELRRFKNIQIMSTDVKLFNGKVDVNIEIRIGDKTQHYIYHIHTFNGVIKHVHVHSK”, the protease stability score was 1.28.

Take “DEEHEAIEQFLRIIIENARTGNEEFLYKYFDPHVRIHIDGQNMVGREEWVEWLRQIRHQVDSFHIKHIEVQGDKLILEGHLEIKLHINGQELHKHVEVRYEINKVNGRWLLRSVHIK”: the protease stability score came to 1.74.

“DEEHEDAVRIWEEFLEAVITGDWDRLKTLLDPNVRLHQGDFEIHGREKIVKTIHEMRIHIHDHRFRDSHFINGRVKLHVESDKEIIYGNKKTRLTVHVTVIIHKVNGVWLVHSVHVE” gave a protease stability score of 0.986.

For the sequence “DEEHEDMDKYSKLLVEMLKTGDEHIFKILADPHVRIDINGREYHGWEDWVEVVRELRIHRLHFTHMEIQGDKLHLHLKSKFSFDGRVHEIEIRIHAKKVNGRWVIKEIRII”, the protease stability score was 2.29.

Turning to “DEEHEELKKMVQHSLQLLMTGDEETIYHLLDPHAKVIINGVEYHGMSLSAKIMIKMARDLGVERFEVHLEHSRWFDGRVDVHISRRVNGQTEEVHINSKKINGRWHLKSIIFN”, the protease stability score was determined as 1.06.

With “DEEHEETHRWVELFIRHHLTGDEDFIMKMLDPNTRWHIDGRTFHGMETVFDARKKERNKLGADHVRFTSFEIQGDFLHILGSIHIDGKELDEKIIIEVIDGRLNSILVTRR”, the protease stability score is 0.661.

On to “DEEHEEVERMWERFIKYYLTGNEELFDHLADPNVRLIIGDKIAIGREEVRKLWERRRREIRIRHMNFHSVRWYDGRIDLEVEVNLDVNGREIKTEQRIHIKVINGRVKDVEIRVE”, for which the protease stability score was determined as 0.743.

Consider “DEEHEEYHRMFRVVEHAYRTGDWKTLSDYMDPNAKQTVGNKEYHGREQVDESLKRLGIKVTDVEDSKEDHINGRLVVRLDQHLEVNGRRIKIHVLIIIIKINGRWIITENMYIFH”, for which the protease stability score stood at 0.141.

“DEEHEEYMDWAIIHLHDWLTGDEDHHNELADPNDRLELVIGDKRIERIGREEVTKQLHEFRKHMRVHRIEIKTRNVYNGKAHLHGIMHFRVGDKKYDVETHIVIVIINGVLKQVKIEIR” had a protease stability score of 0.773.

“DEEHEFLITMVKLVSTWFLTGDFETYIDLADPNTRQHVNGRYSVGREDAVKLEEEMLREIRIRDIRVKHIIRQGDKIELEFRFHMEVDGRVEDITVEVRIFLVNGRLHFLEIRFD” showed a protease stability score of 0.743.

Sequence “DEEHEFMRKMSEEFVHIWLTGDEERLIKLLDPNAKLNIDGVEHHGWKEVHRYLKELKEELGVDHFHVRRITIRYIDGVAISIVHYESHINGRHHELEIHNVVNKIDGRWHLQSIHIHFH” registered a protease stability score of 2.16.

For “DEEHEHAKRAVKKTLTDYYTGDEDSISDLADPNVIQDVGDKEYHGREEFLRSMHKIIKWLGVDHIEVHRVHLINGRVFSRLRLEVDGREVELIIIILKINGRWHWHSMRIIHR”, the protease stability score was 1.03.

Sequence “DEEHEHLHKWLDMLLYAHKTGDPEVILKNADPHVRSEVDGREVHGMEKFARDLYEMRIHRIHIKDVKTIGNKLDVDGRLDGEFNGKRVDSDVHLHLVVIDGRLHSLHIKHR” displayed a protease stability score of 0.558.

Regarding “DEEHEHLKELARLILKWWYTGDEQHMLELADPNVRSHVNGVHLVGREEMMKVWVEVLEFLGADHVEDKRSSIQGDKTILHTSHHVNGKEIEVDVDIRIVDGKDHTLEFRIK”, the protease stability score is 1.44.

Sequence “DEEHEHQHEFAQIIMEMWKTGDWKTMFKLADPNARTIFEGRRLHGRELIWEFLFRLLKKLGVDHEKDRHSHNIGDKIHIHGEEEIGDKKVEVHIHIVIFNGRVKELEIRRREL” came in with a protease stability score of 0.511.
